Results published in article PMC3954793, “SHP-2 Binds to Caveolin-1 and Regulates Src Activity via Competitive Inhibition of CSK in Response to H2O2 in Astrocytes” (PLoS ONE, 2014).

Assays:
caveolin-1/CSK complex = experiment: Co-immunoprecipitation of caveolin-1 and CSK; format: cell-based, human; details: HEK 293T cells transfected with WT or Y14A caveolin-1; 5 mM H2O2, 10 min
Method: (§1) cDNA encoding full-length human caveolin-1 was obtained from Thermo Scientific (Waltham, MA, USA). The Y14A caveolin-1 mutant was generated using a QuickChange site-directed mutagenesis kit (Stratagene, Santa Clara, CA, USA) using PCR. pCMV-SPORT6-caveolin-1 cDNA (25 ng) was used as a template and added to dNTP mix, Pfu buffer, Pfu turbo DNA polymerase and 125 ng of each of the mutagenic primers: sense, 5′-[…]-3′ and antisense, 5′-[…]-3′. Samples were then incubated at 95°C for 1 min, then for 20 cycles of 95°C for 1 min, 65°C for 4 min, and 68°C for 12 min. The methylated parental DNA template in the PCR product was digested using the DpnI (10 U) restriction enzyme for 3 h at 37°C. […] After mutagenesis, 1 µg of caveolin-1 wild-type (WT) or Y14A mutant DNA was transfected into HEK 293T cells using VIVAMAGIC transfection reagent (VIVAGEN, Seongnam, Korea) containing 10% FBS according to the manufacturer’s instructions for 24 h before treatment with 5 mM H2O2 for 10 min; the cells were then analyzed by immunoblotting.
(§2) Cells were plated and transfected with green fluorescence protein (GFP) siRNA (Samchully Pharm Co. Ltd., Seoul, Korea) as a control group and human CSK siRNA and human SHP-2 siRNA from Bioneer (Daejeon, Korea) using Lipofectamine RNAiMAX (Invitrogen, Carlsbad, CA, USA) according to the manufacturer’s instructions to achieve a final concentration of 300 nM. […]

caveolin-1/SHP-2 complex = experiment: Co-immunoprecipitation of caveolin-1 and SHP-2; format: cell-based, human; details: HEK 293T cells transfected with WT or Y14A caveolin-1; 5 mM H2O2, 10 min
Method: as §1, §2

B1: WT caveolin-1: full-length human wild-type caveolin-1 expressed in transfected HEK 293T cells (protein)
chain: MSGGKYVDSEGHLYTVPIREQGNIYKPNNKAMADELSEKQVYDAHTKEIDLVNRDPKHLNDDVVKIDFEDVIAEPEGTHSFDGIWKASFTTFTVTKYWFYRLLSALFGIPMALIWGIYFAILSFLHIWAVVPCIKSFLIEIQCISRVYSIYVHTVCDPLFEAVGKIFSNVRINLQKEI
modifications: phosphotyrosine at 14 after H2O2 treatment
notes: full-length human wild-type caveolin-1 expressed in transfected HEK 293T cells
Q: For B1, which “interaction between CSK and transfected caveolin-1” value (caveolin-1/CSK complex) is on record?
A: Its value is “An interaction between CSK and WT caveolin-1, but not Y14A mutant caveolin-1, was observed in the presence of H2O2”.

Q: What about the “interaction of SHP-2 with transfected caveolin-1” value (caveolin-1/SHP-2 complex) of the same molecule?
A: Its value is “SHP-2 interacted with WT caveolin-1, but not mutant caveolin-1, and only in the presence of H2O2”.
